Patent publication US10377818B2, “Method of treating glioma” (The Board of Trustees of the Leland Stanford Junior …, priority 2015, dated 2019)

How the values were obtained:
Assay type in all cases: cell-based, human
[1] = test system: MAPK pathway (phospho-ERK1/2 T202/Y204); experiment: Western blot of phospho-ERK1/2 as indicator of MAPK pathway activation; details: NLGN3 50 nM vs aCSF
Description: A) Western blot analysis of phosphorylated ERK1/2 (Thr202/Tyr204) and total ERK1/2 in SU-pcBGM2 cells after exposure to either aCSF or NLGN3 (50 nM). […] B) Phosphorylated ERK1/2 levels were normalized to total ERK1/2 levels. […] All experiments performed in three biological replicates and analyzed by unpaired two-way Student's t-test. Data presented as mean±SEM. **P<0.01, ***P<0.001. n.s. indicates P>0.05.
Endogenous protein levels were determined using Western blot analysis. Briefly, after various treatments, 400,000 SU-pcGBM2 cells were lysed and loaded onto SDS-PAGE gels. Proteins were separated with gel electrophoresis and transferred to a PVDF membrane. Proteins were then probed for various antibodies as described in extended experimental procedures.

[2] = test system: NLGN3 mRNA in SU-pcGBM2 cells; experiment: qPCR of NLGN3 gene expression in SU-pcGBM2 cells; details: 50 nM recombinant NLGN3, 12 hour vs vehicle
[3] = test system: PI3K pathway (phospho-AKT); experiment: Western blot of phospho-AKT as indicator of PI3K pathway activity; details: recombinant NLGN3 0-50 nM, 1 hour
Description: A) Signaling through the PI3K pathway increases in response to NLGN3. Representative Western blot illustrating increased phosphorylation of AKT in response to various concentrations of NLGN3 ranging from 0-50 nM. p-AKT is shown in top panel; total AKT is shown in the bottom panel. B) Quantification of the increased fold change of pAKT/AKT ratio in response to NLGN3 at various doses (oneway ANOVA, F=17.99, P<001; data shown as mean±SEM; *P<0.05, **P<0.01, ***P<0.001 by Tukey's post-hoc tests to further examine pairwise comparisons). Fold change is normalized to blank media (aCSF). (C) Fos mRNA expression increases after 1 hour exposure to […] 50 nM NLGN3 (data shown as mean±SEM; **P<0.01 by unpaired two-tailed Student's t-test). D) NLGN3 mRNA expression increases after 12 hour exposure to 50 nM NLGN3 vs. vehicle in SU-[…] cells. Data shown as mean±SEM; *P<0.05 by unpaired two-tailed Student's t-test. […]
Endogenous protein levels were determined using Western blot analysis. […]
Briefly, in FIG. 5, panel A, cells were lysed after 1-hour exposure to 0 nM, 5 nM, 10 nM, or 50 nM recombinant NLGN3 (Origene Technologies, Rockville, Md.), using RIPA buffer and protease inhibitors. […] Protein concentration in the lysate was determined using a Bradford assay. […] Proteins were visualized using Clarity ECL Western Substrate (BioRad, Hercules, Calif.) and quantified using ImageJ.

[4] = test system: HGG patient-derived cell lines (pediatric cortical glioblastoma, DIPG, adult glioblastoma); experiment: EdU proliferation index of various HGG patient-derived cell lines exposed to NLGN3; details: 50 nM NLGN3 for 24 hours
Description: A) Recombinant NLGN3 promotes pediatric high-grade glioma cell proliferation in a dose-dependent manner, plateauing at a low nanomolar concentration. 7-point dose curve plots proliferation index as measured by EdU^+/DAPI^+ staining at 24 hours following exposure of SU-pcGBM2 cells to NLGN3 at concentrations ranging from 0-100 nM. Shaded region indicates concentration present in active CM. B) Proliferation indices of various HGG patient-derived cell lines exposed to 50 nM NLGN3 for 24 hours. Data are shown as mean±SEM. ***P<0.001 by unpaired two-tailed Student's t-tests. C) Neurexin-1β, which binds to NLGN3 with high affinity, abrogates the mitogenic effect of active slice CM. […]
NLGN3 promotes proliferation in a broad range of HGG cultures. […] After 24-hour exposure, all cell lines were evaluated with the EdU assay to determine proliferation index (unpaired two-tailed Student's t-tests).
To assess the number of cells actively synthesizing new DNA in response to various conditions (see extended experimental procedures), SU-pcGBM2, SU-DIPGIV, SU-DIPGXIII, or SU-GBM035 cells were exposed to active CM or various recombinant proteins along with 10-μM EdU and fixed after 24 hours. EdU incorporation was determined using Click-iT EdU visualization (Invitrogen, Grand Island, N.Y.). […]

B1: NLGN3: Recombinant full-length neuroligin-3 (Origene), tested as glioma mitogen (protein, listed as Mus musculus)
chain: MWLQPSLSLSPTPTVGRSLCLTLGFLSLVLRASTQAPAPTVNTHFGKLRGARVPLPSEILGPVDQYLGVPYAAPPIGEKRFLPPEPPPSWSGIRNATHFPPVCPQNIHTAVPEVMLPVWFTANLDIVATYIQEPNEDCLYLNVYVPTEDGSGAKKQGEDLADNDGDEDEDIRDSGAKPVMVYIHGGSYMEGTGNMIDGSVLASYGNVIVITLNYRVGVLGFLSTGDQAAKGNYGLLDQIQALRWVSENIAFFGGDPRRITVFGSGIGASCVSLLTLSHHSEGLFQRAIIQSGSALSSWAVNYQPVKYTSLLADKVGCNVLDTVDMVDCLRQKSAKELVEQDIQPARYHVAFGPVIDGDVIPDDPEILMEQGEFLNYDIMLGVNQGEGLKFVEGVVDPEDGVSGTDFDYSVSNFVDNLYGYPEGKDTLRETIKFMYTDWADRDNPETRRKTLVALFTDHQWVEPSVVTADLHARYGSPTYFYAFYHHCQSLMKPAWSDAAHGDEVPYVFGVPMVGPTDLFPCNFSKNDVMLSAVVMTYWTNFAKTGDPNKPVPQDTKFIHTKANRFEEVAWSKYNPRDQLYLHIGLKPRVRDHYRATKVAFWKHLVPHLYNLHDMFHYTSTTTKVPPPDTTHSSHITRRPNGKTWSTKRPAISPAYSNENAPGSWNGDQDAGPLLVENPRDYSTELSVTIAVGASLLFLNVLAFAALYYRKDKRRQEPLRQPSPQRGTGAPELGTAPEEELAALQLGPTHHECEAGPPHDTLRLTALPDYTLTLRRSPDDIPLMTPNTITMIPNSLVGLQTLHPYNTFAAGFNSTGLPHSHSTTRV
phospho-ERK1/2 T202/Y204 [1]: did not reveal upregulation | NLGN3 gene expression [2]: increase in glioma cell NLGN3 gene expression | phospho-AKT levels relative to total AKT [3]: increased phospho-AKT levels relative to total AKT in a dose-dependent manner | effect on proliferation index [4]: promoted a significant increase in the proliferation index
